Residue numbers refer to the chain shown, from its start. In names and notes the source's numbering stands.
B1: Rag 1: A2aR mutant A184L/R199A/L272A (protein, UniProt P29274 1-412, looked up, variant A184L R199A L272A)
Adenosine receptor A2a: MPIMGSSVYITVELAIAVLAILGNVLVCWAVWLNSNLQNVTNYFVVSLAAADIAVGVLAIPFAITISTGFCAACHGCLFIACFVLVLTQSSIFSLLAIAIDRYIAIRIPLRYNGLVTGTRAKGIIAICWVLSFAIGLTPMLGWNNCGQPKEGKNHSQGCGEGQVACLFEDVVPMNYMVYFNFFLCVLVPLLLMLGVYLAIFLAARRQLKQMESQPLPGERARSTLQKEVHAAKSLAIIVGLFALCWLPLHIINCFTFFCPDCSHAPLWLMYAAIVLSHTNSVVNPFIYAYRIREFRQTFRKIIRSHVLRQQEPFKAAGTSARVLAAHGSDGEQVSLRLNGHPPGVWANGSAPHPERRPNGYALGLVSGGSAQESQGNTGLPDVELLSHELKGVCPEPPGLDDPLAQDGAGVS
B2: Rant 5: A2aR mutant A54L/T88A/V239A (protein, UniProt P29274 1-412, looked up, variant A54L T88A V239A)
Adenosine receptor A2a: B1 Adenosine receptor A2a with A54L, T88A, L184A, A199R, V239A, A272L
B3: Q226A: A2aR point mutant (protein, UniProt P29274 1-412, looked up, variant Q226A)
Adenosine receptor A2a: B1 Adenosine receptor A2a with L184A, A199R, Q226A, A272L
B4: L241A: A2aR point mutant (protein, UniProt P29274 1-412, looked up, variant L241A)
Adenosine receptor A2a: B1 Adenosine receptor A2a with L184A, A199R, L241A, A272L
B5: A231L: A2aR point mutant (protein, UniProt P29274 1-412, looked up, variant A231L)
Adenosine receptor A2a: B1 Adenosine receptor A2a with L184A, A199R, A231L, A272L
B6: H230A: A2aR point mutant (protein, UniProt P29274 1-412, looked up, variant H230A)
Adenosine receptor A2a: B1 Adenosine receptor A2a with L184A, A199R, H230A, A272L
B7: N284A: A2aR point mutant (protein, UniProt P29274 1-412, looked up, variant N284A)
Adenosine receptor A2a: B1 Adenosine receptor A2a with L184A, A199R, A272L, N284A
B8: L167A: A2aR point mutant (protein, UniProt P29274 1-412, looked up, variant L167A)
Adenosine receptor A2a: B1 Adenosine receptor A2a with L167A, L184A, A199R, A272L
B9: S263A: A2aR point mutant (protein, UniProt P29274 1-412, looked up, variant S263A)
Adenosine receptor A2a: B1 Adenosine receptor A2a with L184A, A199R, S263A, A272L
B10: E151A: A2aR point mutant (protein, UniProt P29274 1-412, looked up, variant E151A)
Adenosine receptor A2a: B1 Adenosine receptor A2a with E151A, L184A, A199R, A272L
B11: T119A: A2aR point mutant (protein, UniProt P29274 1-412, looked up, variant T119A)
Adenosine receptor A2a: B1 Adenosine receptor A2a with T119A, L184A, A199R, A272L
B12: K122A: A2aR point mutant (protein, UniProt P29274 1-412, looked up, variant K122A)
Adenosine receptor A2a: B1 Adenosine receptor A2a with K122A, L184A, A199R, A272L
B13: L272A: A2aR point mutant (protein, UniProt P29274 1-412, looked up, variant L272A)
Adenosine receptor A2a: B1 Adenosine receptor A2a with L184A, A199R
B14: A184L: A2aR point mutant (protein, UniProt P29274 1-412, looked up, variant A184L)
Adenosine receptor A2a: B1 Adenosine receptor A2a with A199R, A272L
B15: Q311A: A2aR point mutant (protein, UniProt P29274 1-412, looked up, variant Q311A)
Adenosine receptor A2a: B1 Adenosine receptor A2a with L184A, A199R, A272L, Q311A
B16: V239A: A2aR point mutant (protein, UniProt P29274 1-412, looked up, variant V239A)
Adenosine receptor A2a: B1 Adenosine receptor A2a with L184A, A199R, V239A, A272L
B17: T88A: A2aR point mutant (protein, UniProt P29274 1-412, looked up, variant T88A)
Adenosine receptor A2a: B1 Adenosine receptor A2a with T88A, L184A, A199R, A272L
B18: V57A: A2aR point mutant (protein, UniProt P29274 1-412, looked up, variant V57A)
Adenosine receptor A2a: B1 Adenosine receptor A2a with V57A, L184A, A199R, A272L
B19: G118A: A2aR point mutant (protein, UniProt P29274 1-412, looked up, variant G118A)
Adenosine receptor A2a: B1 Adenosine receptor A2a with G118A, L184A, A199R, A272L
B20: P260A: A2aR point mutant (protein, UniProt P29274 1-412, looked up, variant P260A)
Adenosine receptor A2a: B1 Adenosine receptor A2a with L184A, A199R, P260A, A272L
B21: R199A: A2aR point mutant (protein, UniProt P29274 1-412, looked up, variant R199A)
Adenosine receptor A2a: B1 Adenosine receptor A2a with L184A, A272L
B22: G152A: A2aR point mutant (protein, UniProt P29274 1-412, looked up, variant G152A)
Adenosine receptor A2a: B1 Adenosine receptor A2a with G152A, L184A, A199R, A272L
B23: G123A: A2aR point mutant (protein, UniProt P29274 1-412, looked up, variant G123A)
Adenosine receptor A2a: B1 Adenosine receptor A2a with G123A, L184A, A199R, A272L
B24: H75A: A2aR point mutant (protein, UniProt P29274 1-412, looked up, variant H75A)
Adenosine receptor A2a: B1 Adenosine receptor A2a with H75A, L184A, A199R, A272L
B25: P149A: A2aR point mutant (protein, UniProt P29274 1-412, looked up, variant P149A)
Adenosine receptor A2a: B1 Adenosine receptor A2a with P149A, L184A, A199R, A272L
B26: A54L: A2aR point mutant (protein, UniProt P29274 1-412, looked up, variant A54L)
Adenosine receptor A2a: B1 Adenosine receptor A2a with A54L, L184A, A199R, A272L
B27: L267A: A2aR point mutant (protein, UniProt P29274 1-412, looked up, variant L267A)
Adenosine receptor A2a: B1 Adenosine receptor A2a with L184A, A199R, L267A, A272L
B28: L235A: A2aR point mutant (protein, UniProt P29274 1-412, looked up, variant L235A)
Adenosine receptor A2a: B1 Adenosine receptor A2a with L184A, A199R, L235A, A272L
B29: G114 A: A2aR point mutant (protein, UniProt P29274 1-412, looked up, variant G114A)
Adenosine receptor A2a: B1 Adenosine receptor A2a with G114A, L184A, A199R, A272L
B30: K315A: A2aR point mutant (protein, UniProt P29274 1-412, looked up, variant K315A)
Adenosine receptor A2a: B1 Adenosine receptor A2a with L184A, A199R, A272L, K315A
B31: K227A: A2aR point mutant (protein, UniProt P29274 1-412, looked up, variant K227A)
Adenosine receptor A2a: B1 Adenosine receptor A2a with L184A, A199R, K227A, A272L
B32: A204L: A2aR point mutant (protein, UniProt P29274 1-412, looked up, variant A204L)
Adenosine receptor A2a: B1 Adenosine receptor A2a with L184A, A199R, A204L, A272L
B33: P313A: A2aR point mutant (protein, UniProt P29274 1-412, looked up, variant P313A)
Adenosine receptor A2a: B1 Adenosine receptor A2a with L184A, A199R, A272L, P313A
B34: Rant17: A2aR mutant A54L+K122A+L235A (protein, UniProt P29274 1-412, looked up, variant A54L K122A L235A)
Adenosine receptor A2a: B1 Adenosine receptor A2a with A54L, K122A, L184A, A199R, L235A, A272L
B35: Rant19: A2aR mutant A54L, T88A, V239A+A204L (protein, UniProt P29274 1-412, looked up, variant A54L T88A V239A A204L)
Adenosine receptor A2a: B1 Adenosine receptor A2a with A54L, T88A, L184A, A199R, A204L, V239A, A272L

Test: Thermostability of A2aR and mutants (ligand binding after or during heating)
Assay type: physicochemical
Conditions: 1% DDM (no glycerol), agonist-occupied state
Source text: FIG. 12 Flow chart showing the two different assay formats of ligand (+) and ligand (−) used to determine receptor thermostability.
• 1. 315 site-directed mutants made between residues 2-316 of A2aR. • 2. All of these mutants have been assayed for thermostability using an assay measuring agonist and antagonist binding after the heating step (Ligand(−) format as described in FIG. 12). • a. […] Mutations have been combined to generate mutants in a putative antagonist conformation. Wildtype A2aR has a Tm of 31° C. with ZM241385 bound. • a. Rant17 A54L+K122A+L235A Tm 48° C. (ZM241385 bound) • b. Rant19 A54L, T88A, V239A+A204L Tm 47° C. (ZM241385 bound) • c. Rant21 A54L, T88A, V239A+K122A Tm 49° C. (ZM241385 bound) • 4. Mutations from the agonist screen have been combined, but have led to only a very low level of improvement in Tm of +2° C.

Tm +agonist, 34 °C:
B1

Same assay, conditions: 1% DDM (no glycerol), antagonist-occupied state

Tm +antagonist, 46 °C:
B2

Same assay, conditions: 1% DDM (no glycerol), apo-state, agonist binding

Tm −agonist, 26 °C:
B1

Same assay, conditions: 1% DDM (no glycerol), apo-state, antagonist binding

Tm −antagonist, 42 °C:
B2

Same assay, conditions: Ligand(−) format, binding after the heating step

Thermostability measured with 3H-NECA (agonist), improved thermostability:
B3, B4, B6, B7, B8, B9, B13, B14, B15, B19, B20, B21, B27, B29, B30, B31, B33

Thermostability assayed with 3H-ZM241385 (antagonist), improved thermostability:
B5, B10, B11, B12, B16, B17, B18, B19, B22, B23, B24, B25, B26, B28, B29, B32

Same assay, conditions: ZM241385 bound

Tm, 47 °C:
B35

Tm, 48 °C:
B34

— patent publication US8785135B2, “Mutant G-protein coupled receptors and methods for selecting them” (Heptares Therapeutics Limited, priority 2007, dated 2014)
